Test results from US20150299296A1 (Chugai, published 2015).
Where a chain is given by its changes, count along the chain named. Names and notes keep the numbering of the source. Values belong to the binder of their own block, whether it stands above or below them.

Key:
[1] = target: T1, human FcγRIIb extracellular domain with C-terminal His tag (human, UniProt P31994 43-217); experiment: SPR (Biacore): amount of FcγRIIb bound per captured antibody, relative to the pre-altered antibody GpH7-B3/GpL16-k0 = 100 (Reference Examples 2, 3 and 6)
T1 construct: extracellular domain; For crystals it was expressed with kifunensine and trimmed with Endo F1; also called FcgRIIb; FcγRIIb extracellular region
T1 sequence (looked up): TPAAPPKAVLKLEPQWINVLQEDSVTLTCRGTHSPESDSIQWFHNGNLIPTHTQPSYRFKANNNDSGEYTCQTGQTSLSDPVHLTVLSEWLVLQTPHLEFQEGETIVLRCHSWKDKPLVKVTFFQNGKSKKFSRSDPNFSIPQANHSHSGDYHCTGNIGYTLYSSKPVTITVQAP

[2] = target: T2, human FcγRIa extracellular domain with C-terminal His tag (human, UniProt P12314 16-292); experiment: SPR (Biacore): antibody captured on the chip, FcγR as analyte; amount bound divided by amount of antibody captured, relative to the antibody without mutation in B3 = 100 (Reference Examples 2 and 3)
T2 construct: Whole entry named; also called FcgRIa; FcgIa

[3] = target: T3, FcγRIIIa extracellular domain with C-terminal His tag, allotype not stated (Reference Example 4) (human, UniProt P08637 17-208); experiment: as above
T3 construct: extracellular domain

[4] = target: T1, human FcγRIIb extracellular domain with …; experiment: SPR (Biacore), KD by the method of Reference Example 2 (Example 9-3)
Description: These variants were used for antibody expression and purification according to the method of Reference Example 1, and binding to each FcgR (FcgRIa. FcgRIIa type H, FcgRIIa type R, FcgRIIb, and FcgRIIIa type V) was assessed using the method of Reference Example 2.

[5] = target: T1, human FcγRIIb extracellular domain with …; experiment: SPR KD ratio; reference is the same variant's KD for FcγRIIaR
[6] = target: T1, human FcγRIIb extracellular domain with …; experiment: SPR KD ratio
[7] = target: T1, human FcγRIIb extracellular domain with …; experiment: SPR
[8] = target: T2, human FcγRIa extracellular domain with …; experiment: SPR
[9] = target: T4, human FcγRIIa type H extracellular domain with C-terminal His tag (human, UniProt P12318 34-217); experiment: SPR
T4 construct: extracellular domain; also called FcgRIIaH; FcγRIIa H
T4 sequence (looked up): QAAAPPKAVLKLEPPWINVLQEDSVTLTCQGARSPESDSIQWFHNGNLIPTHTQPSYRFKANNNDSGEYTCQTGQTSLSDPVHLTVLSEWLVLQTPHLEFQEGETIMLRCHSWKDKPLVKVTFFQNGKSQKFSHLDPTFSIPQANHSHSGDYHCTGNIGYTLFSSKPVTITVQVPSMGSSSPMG

[10] = target: T5, human FcγRIIIa type V extracellular domain with C-terminal His tag (human, UniProt P08637 17-208); experiment: SPR
T5 construct: extracellular domain; also called FcgRIIIaV; FcγRIIIaV
T5 sequence (P08637 17-208 F176V): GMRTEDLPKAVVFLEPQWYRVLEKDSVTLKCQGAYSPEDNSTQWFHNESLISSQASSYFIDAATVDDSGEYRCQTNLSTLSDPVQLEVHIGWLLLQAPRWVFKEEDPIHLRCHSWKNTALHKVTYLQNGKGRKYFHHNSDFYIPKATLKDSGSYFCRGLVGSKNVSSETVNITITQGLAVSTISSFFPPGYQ

T2 sequence (P12314 16-292): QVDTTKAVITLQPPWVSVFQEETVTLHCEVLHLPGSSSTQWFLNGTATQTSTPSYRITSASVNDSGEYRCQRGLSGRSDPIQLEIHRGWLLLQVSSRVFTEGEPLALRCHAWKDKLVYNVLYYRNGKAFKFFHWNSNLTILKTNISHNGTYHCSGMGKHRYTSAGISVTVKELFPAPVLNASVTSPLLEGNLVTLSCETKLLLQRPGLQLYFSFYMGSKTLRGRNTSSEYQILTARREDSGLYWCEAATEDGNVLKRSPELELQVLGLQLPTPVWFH
T3 sequence (P08637 17-208): as the sequence (P08637 17-208 F176V) above, with V160F counted along it

binding result [1]: binds
B1: G237E (antibody, human IgG1, kappa)
heavy chain: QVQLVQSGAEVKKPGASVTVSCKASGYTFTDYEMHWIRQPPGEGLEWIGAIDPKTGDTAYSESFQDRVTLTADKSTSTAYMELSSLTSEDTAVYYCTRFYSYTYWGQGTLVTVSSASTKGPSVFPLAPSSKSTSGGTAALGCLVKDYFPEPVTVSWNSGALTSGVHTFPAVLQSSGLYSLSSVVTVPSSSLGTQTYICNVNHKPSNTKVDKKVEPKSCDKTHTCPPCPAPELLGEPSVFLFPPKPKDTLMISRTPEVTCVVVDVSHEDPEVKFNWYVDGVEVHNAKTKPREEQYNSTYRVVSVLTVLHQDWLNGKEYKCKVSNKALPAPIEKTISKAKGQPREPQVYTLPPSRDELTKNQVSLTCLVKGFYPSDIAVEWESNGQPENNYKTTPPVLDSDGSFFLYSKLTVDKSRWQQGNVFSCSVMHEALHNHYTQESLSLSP
light chain: DIVMTQSPLSLPVTPGEPASISCQASESLVHSNRNTYLHWYLQKPGQSPQLLIYKVSNRFSGVPDRFSGSGSGTDFTLKISRVEAEDVGVYYCSQNTHVPPTFGQGTKVEIERTVAAPSVFIFPPSDEQLKSGTASVVCLLNNFYPREAKVQWKVDNALQSGNSQESVTEQDSKDSTYSLSSTLTLSKADYEKHKVYACEVTHQGLSSPVTKSFNRGEC
notes: also called GpH7-B3 with G237E / GpL16-k0 (no P238D)

binding result [2]: binds
B2: mutation B (antibody, human IgG1, kappa)
heavy chain: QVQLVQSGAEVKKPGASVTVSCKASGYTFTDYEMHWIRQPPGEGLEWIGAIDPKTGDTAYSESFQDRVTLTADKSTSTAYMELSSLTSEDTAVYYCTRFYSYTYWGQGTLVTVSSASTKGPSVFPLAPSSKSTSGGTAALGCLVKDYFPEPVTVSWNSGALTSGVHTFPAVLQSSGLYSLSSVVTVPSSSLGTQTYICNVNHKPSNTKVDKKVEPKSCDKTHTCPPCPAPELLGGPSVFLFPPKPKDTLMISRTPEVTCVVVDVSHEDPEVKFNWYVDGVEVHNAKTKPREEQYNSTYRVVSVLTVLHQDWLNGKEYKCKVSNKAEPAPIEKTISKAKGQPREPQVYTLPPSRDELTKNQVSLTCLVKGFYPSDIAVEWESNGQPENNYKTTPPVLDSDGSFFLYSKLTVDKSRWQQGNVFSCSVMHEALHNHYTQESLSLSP
light chain: B1 light chain
notes: Legend: mutation B = Leu at 328 (EU numbering) substituted with Glu

binding result [1]: binds
B3: S239D (antibody, human IgG1, kappa)
heavy chain: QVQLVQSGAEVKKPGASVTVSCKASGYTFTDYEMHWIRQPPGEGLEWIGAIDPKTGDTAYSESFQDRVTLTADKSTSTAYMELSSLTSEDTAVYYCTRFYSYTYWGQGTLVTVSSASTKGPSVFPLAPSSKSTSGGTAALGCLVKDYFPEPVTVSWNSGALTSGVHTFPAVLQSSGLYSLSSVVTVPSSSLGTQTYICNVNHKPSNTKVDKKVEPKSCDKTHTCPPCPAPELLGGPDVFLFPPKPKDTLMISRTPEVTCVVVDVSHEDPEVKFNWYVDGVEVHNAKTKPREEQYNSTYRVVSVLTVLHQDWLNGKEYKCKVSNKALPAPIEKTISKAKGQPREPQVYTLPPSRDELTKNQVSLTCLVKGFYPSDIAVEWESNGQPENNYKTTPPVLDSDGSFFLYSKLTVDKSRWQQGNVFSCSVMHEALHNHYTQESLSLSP
light chain: B1 light chain
notes: also called GpH7-B3 with S239D / GpL16-k0 (no P238D)

binding result [2]: binds
binding result [3]: no binding
B4: mutation A (antibody, human IgG1, kappa)
heavy chain: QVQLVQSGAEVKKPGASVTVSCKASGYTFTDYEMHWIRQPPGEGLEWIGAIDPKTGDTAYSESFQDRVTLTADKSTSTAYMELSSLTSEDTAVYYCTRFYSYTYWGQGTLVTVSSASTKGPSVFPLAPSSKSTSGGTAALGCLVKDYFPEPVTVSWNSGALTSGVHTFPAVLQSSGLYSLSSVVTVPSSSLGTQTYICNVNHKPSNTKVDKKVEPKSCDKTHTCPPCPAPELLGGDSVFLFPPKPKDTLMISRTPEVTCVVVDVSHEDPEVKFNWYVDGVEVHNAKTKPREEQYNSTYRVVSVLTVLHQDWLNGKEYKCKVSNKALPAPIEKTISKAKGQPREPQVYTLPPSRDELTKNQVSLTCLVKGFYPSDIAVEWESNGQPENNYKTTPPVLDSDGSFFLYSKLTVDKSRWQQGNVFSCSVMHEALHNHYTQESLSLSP
light chain: B1 light chain

binding result [1]: binds
B5: G237F (antibody, human IgG1, kappa)
heavy chain: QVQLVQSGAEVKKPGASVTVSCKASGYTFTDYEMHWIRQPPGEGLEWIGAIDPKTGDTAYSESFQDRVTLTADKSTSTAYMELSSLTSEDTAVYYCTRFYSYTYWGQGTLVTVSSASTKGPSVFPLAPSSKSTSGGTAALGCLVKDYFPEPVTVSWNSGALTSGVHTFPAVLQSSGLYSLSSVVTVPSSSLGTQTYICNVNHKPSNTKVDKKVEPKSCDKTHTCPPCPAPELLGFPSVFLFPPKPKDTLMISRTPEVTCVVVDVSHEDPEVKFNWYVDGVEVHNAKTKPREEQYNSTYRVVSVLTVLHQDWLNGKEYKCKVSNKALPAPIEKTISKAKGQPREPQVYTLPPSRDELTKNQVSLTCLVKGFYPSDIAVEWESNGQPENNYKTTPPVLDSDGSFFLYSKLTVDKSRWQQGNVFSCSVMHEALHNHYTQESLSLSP
light chain: B1 light chain
notes: also called GpH7-B3 with G237F / GpL16-k0 (no P238D)

binding result [1]: binds
B6: L234W (antibody, human IgG1, kappa)
heavy chain: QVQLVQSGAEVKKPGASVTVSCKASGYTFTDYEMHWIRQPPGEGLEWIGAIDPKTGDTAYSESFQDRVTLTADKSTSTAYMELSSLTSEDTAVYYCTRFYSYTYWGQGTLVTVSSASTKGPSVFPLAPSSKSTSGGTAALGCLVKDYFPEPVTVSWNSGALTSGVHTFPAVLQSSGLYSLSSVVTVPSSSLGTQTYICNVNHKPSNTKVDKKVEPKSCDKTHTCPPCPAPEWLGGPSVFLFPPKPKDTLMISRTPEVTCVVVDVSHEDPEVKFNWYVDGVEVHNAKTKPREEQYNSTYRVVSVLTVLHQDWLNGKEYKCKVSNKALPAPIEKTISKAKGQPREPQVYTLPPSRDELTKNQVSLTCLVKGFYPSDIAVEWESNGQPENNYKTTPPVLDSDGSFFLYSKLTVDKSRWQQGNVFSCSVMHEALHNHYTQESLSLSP
light chain: B1 light chain
notes: also called GpH7-B3 with L234W / GpL16-k0 (no P238D)

binding result [1]: binds
B7: G237M (antibody, human IgG1, kappa)
heavy chain: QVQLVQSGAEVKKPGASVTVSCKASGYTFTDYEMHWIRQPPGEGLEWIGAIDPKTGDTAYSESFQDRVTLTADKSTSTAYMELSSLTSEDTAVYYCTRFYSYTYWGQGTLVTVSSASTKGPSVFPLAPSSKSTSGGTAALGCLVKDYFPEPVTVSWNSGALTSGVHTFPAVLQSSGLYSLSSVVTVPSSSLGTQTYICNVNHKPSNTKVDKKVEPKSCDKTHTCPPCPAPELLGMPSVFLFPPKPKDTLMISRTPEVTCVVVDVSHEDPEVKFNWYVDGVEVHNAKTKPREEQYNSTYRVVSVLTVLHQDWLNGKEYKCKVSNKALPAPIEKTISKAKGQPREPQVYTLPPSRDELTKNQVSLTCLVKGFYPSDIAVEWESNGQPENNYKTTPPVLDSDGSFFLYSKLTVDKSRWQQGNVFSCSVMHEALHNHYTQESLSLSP
light chain: B1 light chain
notes: also called GpH7-B3 with G237M / GpL16-k0 (no P238D)

binding result [1]: binds
B8: G237L (antibody, human IgG1, kappa)
heavy chain: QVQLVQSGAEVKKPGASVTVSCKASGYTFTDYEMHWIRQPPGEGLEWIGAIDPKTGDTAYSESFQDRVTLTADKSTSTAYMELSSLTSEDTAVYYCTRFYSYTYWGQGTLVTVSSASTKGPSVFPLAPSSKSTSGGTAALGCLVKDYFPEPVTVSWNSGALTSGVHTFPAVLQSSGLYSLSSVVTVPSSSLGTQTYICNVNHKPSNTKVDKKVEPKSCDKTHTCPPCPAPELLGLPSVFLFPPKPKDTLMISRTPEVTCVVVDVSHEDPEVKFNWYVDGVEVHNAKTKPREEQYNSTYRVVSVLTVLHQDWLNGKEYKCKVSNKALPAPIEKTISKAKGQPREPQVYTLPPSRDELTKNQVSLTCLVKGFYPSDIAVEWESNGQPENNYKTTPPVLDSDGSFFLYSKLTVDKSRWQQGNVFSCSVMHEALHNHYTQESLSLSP
light chain: B1 light chain
notes: also called GpH7-B3 with G237L / GpL16-k0 (no P238D)

binding result [1]: binds
B9: G237Y (antibody, human IgG1, kappa)
heavy chain: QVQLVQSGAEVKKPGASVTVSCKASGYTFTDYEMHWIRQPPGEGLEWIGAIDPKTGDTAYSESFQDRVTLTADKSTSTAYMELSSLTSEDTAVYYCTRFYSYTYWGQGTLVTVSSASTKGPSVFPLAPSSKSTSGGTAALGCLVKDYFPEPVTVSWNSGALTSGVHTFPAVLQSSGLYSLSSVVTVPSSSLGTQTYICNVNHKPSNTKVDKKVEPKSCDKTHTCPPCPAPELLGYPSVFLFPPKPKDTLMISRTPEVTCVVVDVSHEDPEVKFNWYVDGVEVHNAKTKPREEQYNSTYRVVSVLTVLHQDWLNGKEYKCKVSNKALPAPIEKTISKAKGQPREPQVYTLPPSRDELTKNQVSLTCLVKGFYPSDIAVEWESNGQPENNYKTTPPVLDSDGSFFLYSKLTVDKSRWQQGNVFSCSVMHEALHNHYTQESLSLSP
light chain: B1 light chain
notes: also called GpH7-B3 with G237Y / GpL16-k0 (no P238D)

binding result [1]: binds
B10: L234Y (antibody, human IgG1, kappa)
heavy chain: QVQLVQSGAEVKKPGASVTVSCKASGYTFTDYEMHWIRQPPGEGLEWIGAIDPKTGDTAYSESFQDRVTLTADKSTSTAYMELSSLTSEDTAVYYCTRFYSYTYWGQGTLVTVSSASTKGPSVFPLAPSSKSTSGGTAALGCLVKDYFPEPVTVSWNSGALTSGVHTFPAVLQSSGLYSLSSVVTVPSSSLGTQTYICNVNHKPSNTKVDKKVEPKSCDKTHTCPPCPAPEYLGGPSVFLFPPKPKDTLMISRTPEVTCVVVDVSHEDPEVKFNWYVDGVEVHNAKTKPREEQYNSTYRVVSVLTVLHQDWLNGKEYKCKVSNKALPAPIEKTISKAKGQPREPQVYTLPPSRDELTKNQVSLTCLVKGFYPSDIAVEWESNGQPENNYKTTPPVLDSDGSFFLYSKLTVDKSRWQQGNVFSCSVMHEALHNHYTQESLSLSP
light chain: B1 light chain
notes: also called GpH7-B3 with L234Y / GpL16-k0 (no P238D)

binding result [4]: binds
B11: IL6R-BP264/IL6R-L (antibody, human IgG1, kappa)
heavy: QVQLQESGPGLVKPSETLSLTCAVSGHSISHDHAWSWVRQPPGEGLEWIGFISYSGITNYNPSLQGRVTISRDNSKNTLYLQMNSLRAEDTAVYYCARSLARTTAMDYWGEGTLVTVSSASTKGPSVFPLAPSSKSTSGGTAALGCLVKDYFPEPVTVSWNSGALTSGVHTFPAVLQSSGLYSLSSVVTVPSSSLGTQTYICNVNHKPSNTKVDKKVEPKSCDKTHTCPPCPAPDLLGDDSVFLFPPKPKDTLMISRTPEVTCVVVDVSEEDGEVKFNWYVDGVEVHNAKTKPREEQDNSTYRVVSVLTVLHQDWLNGKEYKCKVSNKALPRPIEKTISKAKGQPREPQVYTLPPSRDELTKNQVSLTCLVKGFYPSDIAVEWESNGQPENNYKTTPPVLDSDGSFFLYSKLTVDKSRWQQGNVFSCSVMHEALHNHYTQESLSLSP
light: not shown

KD (IIaR)/KD (IIb) [5]: 16.1
B12: IL6R-BP479/IL6R-L (antibody)
chain 1: B11 heavy with V266I, V268L, S269A, D298Y, R332A
chain 2: not shown

fold binding (IL6R-B3/IL6R-L = 1) [6]: 321 times
B13: IL6R-BP495/IL6R-L (antibody, human IgG1, kappa)
heavy: B11 heavy with D235E, S269G
light: not shown

fold binding against the native form [6]: 147 fold
B14: IL6R-BP493/IL6R-L (antibody, human IgG1, kappa)
heavy: B11 heavy with D235E, D239G, V266I, S269A, R332A
light: not shown

binding result [7]: binds
binding result [8]: binds
B15: IL6R-BP436/IL6R-L (antibody, human IgG1, kappa)
heavy: B11 heavy with S269A, I334T
light: not shown

fold binding against the native form [6]: 131 fold
B16: IL6R-BP492/IL6R-L (antibody, human IgG1, kappa)
heavy: B11 heavy with D235E, D239G, V266I, S269A, D298Y, R332A
light: not shown

fold binding against the native form [6]: 211 fold
B17: IL6R-BP568/IL6R-L (antibody)
heavy: B11 heavy with D239G, V266I, S269A, D298Y, R332A
light: not shown

fold binding (IL6R-B3/IL6R-L = 1) [6]: 3100 times
B18: IL6R-BP489/IL6R-L (antibody, human IgG1, kappa)
heavy: B11 heavy with V266I, S269A, P398M
light: not shown

binding result [9]: binds
binding result [10]: binds
binding result [8]: binds
B19: IL6R-BP253/IL6R-L (antibody, human IgG1, kappa)
heavy: B11 heavy with D235E, D239G, D240P, S269E, E270H, G273P, D298Y, L330F, R332A
light: not shown
notes: IL6R-B3 with S267E and L328F; also called IL6R-BP253/ILR-L

binding result [8]: binds
KD (IIaR)/KD (IIb) [5]: 64.4
B20: IL6R-BP567/IL6R-L (antibody, human IgG1, kappa)
heavy: B11 heavy with D239G, V266I, S269A, R332A
light: not shown
